In patent US20180155451A1 (published 2018) one finds Ho/Con_1a data, which are given here for eight molecules.

The target in the experiment is T1, FcγRIa (human, UniProt P12314 16-292).
T1 construct: extracellular domain; also called FcgRI; CD64; not shown: C-terminal His tag
Nature of the experiment: SPR (Biacore), antibody captured on antigen peptide chip, FcγRIa as analyte; relative binding amount. On the procedure:
Analysis of interaction between objective antibody and the FcγR was carried out using Biacore T100 (GE Healthcare). HBS-EP+ (GE Healthcare) was used as the running buffer, and the measurement temperature was set to 25° C. Chips produced by immobilizing the antigen peptide by the amine coupling method to a Series S Sencor Chip CM5 (GE Healthcare), or alternatively, chips produced by allowing preliminarily biotinylated antigen peptides to interact with and immobilize onto a Series S Sensor Chip SA (certified) (GE Healthcare) were used. Antibodies of interest were captured onto an antigen peptide-immobilized chip, and allowed to interact to each FcγR diluted with running buffer. To regenerate and repeatedly use the chip, the antibodies captured on the chip were washed off by reacting 10 mM glycine-HCl, pH 1.5.

T1 sequence (P12314 16-292): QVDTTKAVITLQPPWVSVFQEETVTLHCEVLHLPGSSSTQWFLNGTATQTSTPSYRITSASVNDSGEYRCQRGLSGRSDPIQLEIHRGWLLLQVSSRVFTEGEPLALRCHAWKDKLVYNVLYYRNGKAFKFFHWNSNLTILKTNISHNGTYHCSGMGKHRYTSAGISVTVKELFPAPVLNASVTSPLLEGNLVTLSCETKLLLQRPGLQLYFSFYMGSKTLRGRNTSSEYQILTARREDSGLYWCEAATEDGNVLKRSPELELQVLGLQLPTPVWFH

B1: GpH7-B3 variant Y296_20W/GpL16-k0 (antibody, human IgG1, kappa)
heavy: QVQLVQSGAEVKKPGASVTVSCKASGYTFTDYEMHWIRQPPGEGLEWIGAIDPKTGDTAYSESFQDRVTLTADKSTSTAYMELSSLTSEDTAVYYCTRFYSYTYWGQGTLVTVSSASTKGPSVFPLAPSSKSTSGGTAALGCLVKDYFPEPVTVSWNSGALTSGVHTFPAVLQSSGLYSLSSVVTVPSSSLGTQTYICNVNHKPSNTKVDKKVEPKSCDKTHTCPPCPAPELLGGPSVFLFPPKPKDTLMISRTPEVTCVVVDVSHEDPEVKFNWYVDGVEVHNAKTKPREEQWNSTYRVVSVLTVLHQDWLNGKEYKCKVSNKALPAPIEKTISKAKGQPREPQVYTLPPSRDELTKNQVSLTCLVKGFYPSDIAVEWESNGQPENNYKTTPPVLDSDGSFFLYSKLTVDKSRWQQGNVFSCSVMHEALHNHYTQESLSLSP
light: DIVMTQSPLSLPVTPGEPASISCQASESLVHSNRNTYLHWYLQKPGQSPQLLIYKVSNRFSGVPDRFSGSGSGTDFTLKISRVEAEDVGVYYCSQNTHVPPTFGQGTKVEIERTVAAPSVFIFPPSDEQLKSGTASVVCLLNNFYPREAKVQWKVDNALQSGNSQESVTEQDSKDSTYSLSSTLTLSKADYEKHKVYACEVTHQGLSSPVTKSFNRGEC
notes: homodimerized IgG1; mutation in both H chains; also called Ho Ab
For B1, the Ho/Con_1a is 106 % of control (GpH7-B3/GpL16-k0 = 100).

B2: GpH7-B3 variant Y300_03V/GpL16-k0 (antibody, human IgG1, kappa)
heavy: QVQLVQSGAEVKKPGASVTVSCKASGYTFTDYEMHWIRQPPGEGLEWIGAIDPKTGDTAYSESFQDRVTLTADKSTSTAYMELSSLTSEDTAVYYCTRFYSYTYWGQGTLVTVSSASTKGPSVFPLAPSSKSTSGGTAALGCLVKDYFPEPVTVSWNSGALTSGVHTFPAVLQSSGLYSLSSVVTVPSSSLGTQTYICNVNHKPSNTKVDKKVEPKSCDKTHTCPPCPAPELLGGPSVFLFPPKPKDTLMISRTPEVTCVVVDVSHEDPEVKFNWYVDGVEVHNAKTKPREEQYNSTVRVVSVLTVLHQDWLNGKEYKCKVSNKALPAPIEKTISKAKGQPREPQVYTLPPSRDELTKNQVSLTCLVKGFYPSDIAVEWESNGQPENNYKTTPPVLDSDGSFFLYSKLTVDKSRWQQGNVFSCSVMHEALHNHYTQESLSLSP
light: DIVMTQSPLSLPVTPGEPASISCQASESLVHSNRNTYLHWYLQKPGQSPQLLIYKVSNRFSGVPDRFSGSGSGTDFTLKISRVEAEDVGVYYCSQNTHVPPTFGQGTKVEIERTVAAPSVFIFPPSDEQLKSGTASVVCLLNNFYPREAKVQWKVDNALQSGNSQESVTEQDSKDSTYSLSSTLTLSKADYEKHKVYACEVTHQGLSSPVTKSFNRGEC
notes: as for B1
Take B2: the Ho/Con_1a is 112 % of control (GpH7-B3/GpL16-k0 = 100).

B3: GpH7-B3 variant Y300_02A/GpL16-k0 (antibody, human IgG1, kappa)
heavy: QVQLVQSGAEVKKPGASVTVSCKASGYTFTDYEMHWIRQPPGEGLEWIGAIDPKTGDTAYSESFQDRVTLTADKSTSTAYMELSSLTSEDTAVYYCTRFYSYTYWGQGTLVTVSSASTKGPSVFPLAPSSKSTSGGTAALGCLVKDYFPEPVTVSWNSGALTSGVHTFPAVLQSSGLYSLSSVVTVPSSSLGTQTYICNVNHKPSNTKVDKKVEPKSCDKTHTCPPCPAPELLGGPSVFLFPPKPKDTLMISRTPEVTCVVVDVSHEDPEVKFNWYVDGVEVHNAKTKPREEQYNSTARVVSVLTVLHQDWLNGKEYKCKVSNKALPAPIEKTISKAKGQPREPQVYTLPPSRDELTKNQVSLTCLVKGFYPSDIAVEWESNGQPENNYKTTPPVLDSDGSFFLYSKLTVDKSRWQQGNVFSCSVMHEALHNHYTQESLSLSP
light: DIVMTQSPLSLPVTPGEPASISCQASESLVHSNRNTYLHWYLQKPGQSPQLLIYKVSNRFSGVPDRFSGSGSGTDFTLKISRVEAEDVGVYYCSQNTHVPPTFGQGTKVEIERTVAAPSVFIFPPSDEQLKSGTASVVCLLNNFYPREAKVQWKVDNALQSGNSQESVTEQDSKDSTYSLSSTLTLSKADYEKHKVYACEVTHQGLSSPVTKSFNRGEC
notes: as for B1
As to B3, the Ho/Con_1a is 110 % of control (GpH7-B3/GpL16-k0 = 100).

B4: GpH7-B3 variant Y300_06M/GpL16-k0 (antibody, human IgG1, kappa)
heavy: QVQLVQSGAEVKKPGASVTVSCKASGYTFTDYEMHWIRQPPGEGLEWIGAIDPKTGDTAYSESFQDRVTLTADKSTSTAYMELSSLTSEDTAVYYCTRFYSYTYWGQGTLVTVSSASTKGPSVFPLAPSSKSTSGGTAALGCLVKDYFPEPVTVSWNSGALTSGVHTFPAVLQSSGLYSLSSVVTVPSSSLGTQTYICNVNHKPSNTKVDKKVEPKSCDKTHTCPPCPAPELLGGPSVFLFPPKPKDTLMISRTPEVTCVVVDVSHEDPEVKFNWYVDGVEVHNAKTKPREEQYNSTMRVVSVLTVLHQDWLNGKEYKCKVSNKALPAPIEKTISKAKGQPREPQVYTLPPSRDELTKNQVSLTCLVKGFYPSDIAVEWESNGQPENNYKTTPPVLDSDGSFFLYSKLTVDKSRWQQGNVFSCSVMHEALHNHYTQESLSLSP
light: DIVMTQSPLSLPVTPGEPASISCQASESLVHSNRNTYLHWYLQKPGQSPQLLIYKVSNRFSGVPDRFSGSGSGTDFTLKISRVEAEDVGVYYCSQNTHVPPTFGQGTKVEIERTVAAPSVFIFPPSDEQLKSGTASVVCLLNNFYPREAKVQWKVDNALQSGNSQESVTEQDSKDSTYSLSSTLTLSKADYEKHKVYACEVTHQGLSSPVTKSFNRGEC
notes: as for B1
As to B4, the Ho/Con_1a was 111 % of control (GpH7-B3/GpL16-k0 = 100).

B5: GpH7-B3 variant Y300_11K/GpL16-k0 (antibody, human IgG1, kappa)
heavy: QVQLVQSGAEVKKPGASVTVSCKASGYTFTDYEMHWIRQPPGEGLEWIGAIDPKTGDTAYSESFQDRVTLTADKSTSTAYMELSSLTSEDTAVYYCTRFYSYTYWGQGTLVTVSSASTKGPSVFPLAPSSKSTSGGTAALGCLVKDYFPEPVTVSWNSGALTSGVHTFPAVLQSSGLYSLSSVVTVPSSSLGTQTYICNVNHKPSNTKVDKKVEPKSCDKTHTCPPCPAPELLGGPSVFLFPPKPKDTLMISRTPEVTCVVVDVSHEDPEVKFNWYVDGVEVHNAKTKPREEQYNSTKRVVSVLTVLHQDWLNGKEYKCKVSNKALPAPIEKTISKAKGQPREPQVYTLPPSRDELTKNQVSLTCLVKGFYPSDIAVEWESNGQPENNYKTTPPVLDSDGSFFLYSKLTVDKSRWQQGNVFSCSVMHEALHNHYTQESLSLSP
light: DIVMTQSPLSLPVTPGEPASISCQASESLVHSNRNTYLHWYLQKPGQSPQLLIYKVSNRFSGVPDRFSGSGSGTDFTLKISRVEAEDVGVYYCSQNTHVPPTFGQGTKVEIERTVAAPSVFIFPPSDEQLKSGTASVVCLLNNFYPREAKVQWKVDNALQSGNSQESVTEQDSKDSTYSLSSTLTLSKADYEKHKVYACEVTHQGLSSPVTKSFNRGEC
notes: as for B1
On to B5, for which the Ho/Con_1a is 101 % of control (GpH7-B3/GpL16-k0 = 100).

B6: GpH7-B3 variant Y300_09D/GpL16-k0 (antibody, human IgG1, kappa)
heavy: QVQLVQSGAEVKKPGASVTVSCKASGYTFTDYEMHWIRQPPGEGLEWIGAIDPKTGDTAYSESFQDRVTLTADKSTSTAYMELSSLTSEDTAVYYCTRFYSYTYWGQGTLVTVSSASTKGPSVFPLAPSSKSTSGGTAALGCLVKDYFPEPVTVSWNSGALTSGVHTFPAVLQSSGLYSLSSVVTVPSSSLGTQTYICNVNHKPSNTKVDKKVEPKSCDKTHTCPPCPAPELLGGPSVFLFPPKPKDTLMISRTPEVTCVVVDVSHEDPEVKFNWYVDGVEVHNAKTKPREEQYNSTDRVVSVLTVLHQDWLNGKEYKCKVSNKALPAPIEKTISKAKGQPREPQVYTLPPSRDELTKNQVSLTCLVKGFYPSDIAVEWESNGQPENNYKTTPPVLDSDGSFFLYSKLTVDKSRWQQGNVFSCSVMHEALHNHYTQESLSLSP
light: DIVMTQSPLSLPVTPGEPASISCQASESLVHSNRNTYLHWYLQKPGQSPQLLIYKVSNRFSGVPDRFSGSGSGTDFTLKISRVEAEDVGVYYCSQNTHVPPTFGQGTKVEIERTVAAPSVFIFPPSDEQLKSGTASVVCLLNNFYPREAKVQWKVDNALQSGNSQESVTEQDSKDSTYSLSSTLTLSKADYEKHKVYACEVTHQGLSSPVTKSFNRGEC
notes: as for B1
B6: the Ho/Con_1a is 111 % of control (GpH7-B3/GpL16-k0 = 100).

B7: GpH7-B3 variant Y300_10E/GpL16-k0 (antibody, human IgG1, kappa)
heavy: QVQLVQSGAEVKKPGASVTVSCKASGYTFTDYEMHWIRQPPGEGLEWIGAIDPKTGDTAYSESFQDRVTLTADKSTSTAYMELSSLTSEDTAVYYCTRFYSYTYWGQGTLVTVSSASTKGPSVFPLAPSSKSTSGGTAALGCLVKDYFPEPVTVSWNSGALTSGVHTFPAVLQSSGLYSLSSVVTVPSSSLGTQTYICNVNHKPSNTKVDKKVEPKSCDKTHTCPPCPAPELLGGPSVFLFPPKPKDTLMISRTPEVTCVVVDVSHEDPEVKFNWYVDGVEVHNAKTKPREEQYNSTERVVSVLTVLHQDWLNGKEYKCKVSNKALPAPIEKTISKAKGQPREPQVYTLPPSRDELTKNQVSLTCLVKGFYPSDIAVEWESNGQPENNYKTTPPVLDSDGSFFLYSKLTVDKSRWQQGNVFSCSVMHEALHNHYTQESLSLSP
light: DIVMTQSPLSLPVTPGEPASISCQASESLVHSNRNTYLHWYLQKPGQSPQLLIYKVSNRFSGVPDRFSGSGSGTDFTLKISRVEAEDVGVYYCSQNTHVPPTFGQGTKVEIERTVAAPSVFIFPPSDEQLKSGTASVVCLLNNFYPREAKVQWKVDNALQSGNSQESVTEQDSKDSTYSLSSTLTLSKADYEKHKVYACEVTHQGLSSPVTKSFNRGEC
notes: as for B1
As for B7, the Ho/Con_1a was 111 % of control (GpH7-B3/GpL16-k0 = 100).

B8: GpH7-B3 variant Y300_08L/GpL16-k0 (antibody, human IgG1, kappa)
heavy: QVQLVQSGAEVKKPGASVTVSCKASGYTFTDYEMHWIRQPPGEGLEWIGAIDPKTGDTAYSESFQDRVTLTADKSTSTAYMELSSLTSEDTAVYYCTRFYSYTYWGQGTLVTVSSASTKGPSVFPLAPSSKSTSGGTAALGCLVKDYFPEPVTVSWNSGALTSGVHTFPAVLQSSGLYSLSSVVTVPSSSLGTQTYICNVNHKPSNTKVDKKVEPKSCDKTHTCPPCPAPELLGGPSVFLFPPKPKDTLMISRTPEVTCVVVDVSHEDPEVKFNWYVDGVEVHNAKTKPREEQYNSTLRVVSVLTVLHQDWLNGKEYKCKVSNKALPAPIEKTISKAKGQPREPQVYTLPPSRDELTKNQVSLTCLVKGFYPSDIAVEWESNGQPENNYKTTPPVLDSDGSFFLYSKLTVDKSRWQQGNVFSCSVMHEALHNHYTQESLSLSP
light: DIVMTQSPLSLPVTPGEPASISCQASESLVHSNRNTYLHWYLQKPGQSPQLLIYKVSNRFSGVPDRFSGSGSGTDFTLKISRVEAEDVGVYYCSQNTHVPPTFGQGTKVEIERTVAAPSVFIFPPSDEQLKSGTASVVCLLNNFYPREAKVQWKVDNALQSGNSQESVTEQDSKDSTYSLSSTLTLSKADYEKHKVYACEVTHQGLSSPVTKSFNRGEC
notes: as for B1
Consider B8, for which the Ho/Con_1a was 109 % of control (GpH7-B3/GpL16-k0 = 100).
